{"source": "patent US20210087296A1", "about": "(published 2021)", "binders": {"B1": {"name": "Fab 3A2 (Fab, V domains shown)", "VH": "EVQLVESGGGLVQPGGSLRLSCAASGFNLSSSSMHWVRQAPGKGLEWVASIYPSYSYTYYADSVKGRFTISADTSKNTAYLQMNSLRAEDTAVYYCARVKLQKDKSHQWIRNLVATPYGRYVMDYWGQGTLVTVSS", "VL": "DIQMTQSPSSLSASVGDRVTITCRASQSVSSAVAWYQQKPGKAPKLLIYSASSLYSGVPSRFSGSRSGTDFTLTISSLQPEDFATYYCQQYGYPITFGQGTKVEIKR"}, "B2": {"name": "Fab R2C14 (Fab, V domains shown)", "VH": "EVQLVESGGGLVQPGGSLRLSCAASGFNIYSSSIHWVRQAPGKGLEWVASIYSYSGYTYYADSVKGRFTISADTSKNTAYLQMNSLRAEDTAVYYCARVSNRYNRSSASIAGLQLFRPYGMDYWGQGTLVTVSS", "VL": "DIQMTQSPSSLSASVGDRVTITCRASQSVSSAVAWYQQKPGKAPKLLIYSASSLYSGVPSRFSGSRSGTDFTLTISSLQPEDFATYYCQQSSYSLITFGQGTKVEIKR"}, "B3": {"name": "Fab R3C8 (Fab, V domains shown)", "VH": "EVQLVESGGGLVQPGGSLRLSCAASGFNFSSSSIHWVRQAPGKGLEWVASIYPSYSYTYYADSVKGRFTISADTSKNTAYLQMNSLRAEDTAVYYCARHCLLRSRRCEMSTKTRELNVYRYAMDYWGQGTLVTVSS", "VL": "DIQMTQSPSSLSASVGDRVTITCRASQSVSSAVAWYQQKPGKAPKLLIYSASSLYSGVPSRFSGSRSGTDFTLTISSLQPEDFATYYCQQWPVGSSYPITFGQGTKVEIKR"}}, "data": [{"molecular_target": "matrix metalloproteinase-14 catalytic domain (cdMMP-14) (UniProt P50281 114-287, biotinylated with EZ-Link Sulfo-NHS-LC-Biotin for ELISA; amine-coupled to CM5 chip for SPR)", "test": "ELISA", "units": {"EC50": "nM"}, "values": [{"binder": "B1", "EC50": 4}, {"binder": "B2", "EC50": "> 1000"}, {"binder": "B3", "EC50": "> 1000"}]}]}
